Reference: patent US20110065647A1 (BIOSEARCH 2007, published 2011)
Ends that are not written are not given here.

B1: Peptide F (peptide)
peptide: DCLGWFKGCDPDNDKCCEGYKCNRRDKWCKYKLW
modifications: disulfide (positions not given here); not fully specified (bridges); also: three disulphide bridges, probably C1-C4, C2-C5, C3-C6
B2: Peptide B (peptide)
peptide: YCQEFLWTCDEERKCCGDMVCRLWCKKRL-NH2
modifications: disulfide (positions not given here); not fully specified (bridges); also: three disulphide bridges, probably C1-C4, C2-C5, C3-C6
B3: Peptide C (peptide)
peptide: ACLGFGEKCNPSNDKCCKSSSLVCSQKHKWCKYGW
modifications: disulfide (positions not given here); not fully specified (bridges); also: three disulphide bridges, probably C1-C4, C2-C5, C3-C6
B4: Peptide A (peptide)
peptide: DDCLGMFSSCDPDNDKCCEGRKCNRKDKWCKYVL-NH2
modifications: disulfide (positions not given here); not fully specified (bridges); also: three disulphide bridges, probably C1-C4, C2-C5, C3-C6

Experiments:
rNaV1.8 channels = rNaV1.8 channels (rat, UniProt Q62968 1-1956); assay: cell-based or functional assay
rNaV1.8 channels, sequence (Q62968 whole entry): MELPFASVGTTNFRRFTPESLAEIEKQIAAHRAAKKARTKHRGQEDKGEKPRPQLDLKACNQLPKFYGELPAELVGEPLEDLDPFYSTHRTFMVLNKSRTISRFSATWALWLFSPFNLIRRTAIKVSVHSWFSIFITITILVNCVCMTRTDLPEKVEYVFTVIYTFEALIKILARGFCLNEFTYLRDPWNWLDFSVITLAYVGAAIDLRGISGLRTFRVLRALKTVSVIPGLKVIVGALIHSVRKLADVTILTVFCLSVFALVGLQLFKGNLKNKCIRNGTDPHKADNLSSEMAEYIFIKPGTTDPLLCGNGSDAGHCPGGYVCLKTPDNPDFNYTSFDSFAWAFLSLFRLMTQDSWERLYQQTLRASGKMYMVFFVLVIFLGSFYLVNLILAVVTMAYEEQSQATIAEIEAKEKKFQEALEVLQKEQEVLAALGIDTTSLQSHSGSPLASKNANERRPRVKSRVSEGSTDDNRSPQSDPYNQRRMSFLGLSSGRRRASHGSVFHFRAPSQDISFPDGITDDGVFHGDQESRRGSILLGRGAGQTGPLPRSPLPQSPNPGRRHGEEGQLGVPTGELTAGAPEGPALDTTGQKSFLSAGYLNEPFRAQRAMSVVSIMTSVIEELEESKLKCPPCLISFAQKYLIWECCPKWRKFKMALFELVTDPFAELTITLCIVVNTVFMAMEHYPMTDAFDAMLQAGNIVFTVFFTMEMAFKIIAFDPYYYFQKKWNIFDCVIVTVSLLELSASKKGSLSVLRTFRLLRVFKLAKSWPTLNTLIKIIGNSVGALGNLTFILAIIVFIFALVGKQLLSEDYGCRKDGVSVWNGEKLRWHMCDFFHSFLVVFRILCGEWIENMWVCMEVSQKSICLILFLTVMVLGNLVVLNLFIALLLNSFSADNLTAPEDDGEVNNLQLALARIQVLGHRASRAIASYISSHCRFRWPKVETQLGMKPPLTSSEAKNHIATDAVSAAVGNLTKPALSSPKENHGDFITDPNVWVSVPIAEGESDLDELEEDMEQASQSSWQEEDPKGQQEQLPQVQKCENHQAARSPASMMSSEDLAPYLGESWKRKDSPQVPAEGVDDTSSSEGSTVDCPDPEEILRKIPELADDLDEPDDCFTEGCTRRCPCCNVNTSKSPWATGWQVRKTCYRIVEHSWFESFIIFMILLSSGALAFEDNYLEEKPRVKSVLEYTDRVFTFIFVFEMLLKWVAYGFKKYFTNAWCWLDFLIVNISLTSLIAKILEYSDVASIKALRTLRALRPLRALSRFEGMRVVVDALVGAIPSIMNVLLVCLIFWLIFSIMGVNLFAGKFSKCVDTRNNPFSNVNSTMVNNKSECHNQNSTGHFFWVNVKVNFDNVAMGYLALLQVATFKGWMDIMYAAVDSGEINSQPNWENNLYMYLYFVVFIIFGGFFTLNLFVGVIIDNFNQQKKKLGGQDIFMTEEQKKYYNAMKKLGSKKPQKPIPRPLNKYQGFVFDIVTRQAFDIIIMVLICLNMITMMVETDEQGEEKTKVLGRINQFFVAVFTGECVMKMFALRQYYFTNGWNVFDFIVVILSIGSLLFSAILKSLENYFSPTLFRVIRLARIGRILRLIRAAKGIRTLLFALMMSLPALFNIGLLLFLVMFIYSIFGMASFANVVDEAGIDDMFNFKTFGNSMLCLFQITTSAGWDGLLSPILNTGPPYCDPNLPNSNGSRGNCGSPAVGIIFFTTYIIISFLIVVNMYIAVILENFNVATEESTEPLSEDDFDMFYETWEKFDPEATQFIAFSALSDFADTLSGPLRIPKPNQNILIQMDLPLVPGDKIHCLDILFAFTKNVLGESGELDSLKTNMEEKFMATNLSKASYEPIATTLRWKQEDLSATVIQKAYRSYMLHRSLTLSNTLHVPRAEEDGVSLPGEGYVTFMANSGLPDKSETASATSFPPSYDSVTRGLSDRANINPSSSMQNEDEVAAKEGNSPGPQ

rNaV1.3 channels = rNaV1.3 channels (rat, UniProt P08104 1-1951); assay: cell-based or functional assay
rNaV1.3 channels, sequence (P08104 whole entry): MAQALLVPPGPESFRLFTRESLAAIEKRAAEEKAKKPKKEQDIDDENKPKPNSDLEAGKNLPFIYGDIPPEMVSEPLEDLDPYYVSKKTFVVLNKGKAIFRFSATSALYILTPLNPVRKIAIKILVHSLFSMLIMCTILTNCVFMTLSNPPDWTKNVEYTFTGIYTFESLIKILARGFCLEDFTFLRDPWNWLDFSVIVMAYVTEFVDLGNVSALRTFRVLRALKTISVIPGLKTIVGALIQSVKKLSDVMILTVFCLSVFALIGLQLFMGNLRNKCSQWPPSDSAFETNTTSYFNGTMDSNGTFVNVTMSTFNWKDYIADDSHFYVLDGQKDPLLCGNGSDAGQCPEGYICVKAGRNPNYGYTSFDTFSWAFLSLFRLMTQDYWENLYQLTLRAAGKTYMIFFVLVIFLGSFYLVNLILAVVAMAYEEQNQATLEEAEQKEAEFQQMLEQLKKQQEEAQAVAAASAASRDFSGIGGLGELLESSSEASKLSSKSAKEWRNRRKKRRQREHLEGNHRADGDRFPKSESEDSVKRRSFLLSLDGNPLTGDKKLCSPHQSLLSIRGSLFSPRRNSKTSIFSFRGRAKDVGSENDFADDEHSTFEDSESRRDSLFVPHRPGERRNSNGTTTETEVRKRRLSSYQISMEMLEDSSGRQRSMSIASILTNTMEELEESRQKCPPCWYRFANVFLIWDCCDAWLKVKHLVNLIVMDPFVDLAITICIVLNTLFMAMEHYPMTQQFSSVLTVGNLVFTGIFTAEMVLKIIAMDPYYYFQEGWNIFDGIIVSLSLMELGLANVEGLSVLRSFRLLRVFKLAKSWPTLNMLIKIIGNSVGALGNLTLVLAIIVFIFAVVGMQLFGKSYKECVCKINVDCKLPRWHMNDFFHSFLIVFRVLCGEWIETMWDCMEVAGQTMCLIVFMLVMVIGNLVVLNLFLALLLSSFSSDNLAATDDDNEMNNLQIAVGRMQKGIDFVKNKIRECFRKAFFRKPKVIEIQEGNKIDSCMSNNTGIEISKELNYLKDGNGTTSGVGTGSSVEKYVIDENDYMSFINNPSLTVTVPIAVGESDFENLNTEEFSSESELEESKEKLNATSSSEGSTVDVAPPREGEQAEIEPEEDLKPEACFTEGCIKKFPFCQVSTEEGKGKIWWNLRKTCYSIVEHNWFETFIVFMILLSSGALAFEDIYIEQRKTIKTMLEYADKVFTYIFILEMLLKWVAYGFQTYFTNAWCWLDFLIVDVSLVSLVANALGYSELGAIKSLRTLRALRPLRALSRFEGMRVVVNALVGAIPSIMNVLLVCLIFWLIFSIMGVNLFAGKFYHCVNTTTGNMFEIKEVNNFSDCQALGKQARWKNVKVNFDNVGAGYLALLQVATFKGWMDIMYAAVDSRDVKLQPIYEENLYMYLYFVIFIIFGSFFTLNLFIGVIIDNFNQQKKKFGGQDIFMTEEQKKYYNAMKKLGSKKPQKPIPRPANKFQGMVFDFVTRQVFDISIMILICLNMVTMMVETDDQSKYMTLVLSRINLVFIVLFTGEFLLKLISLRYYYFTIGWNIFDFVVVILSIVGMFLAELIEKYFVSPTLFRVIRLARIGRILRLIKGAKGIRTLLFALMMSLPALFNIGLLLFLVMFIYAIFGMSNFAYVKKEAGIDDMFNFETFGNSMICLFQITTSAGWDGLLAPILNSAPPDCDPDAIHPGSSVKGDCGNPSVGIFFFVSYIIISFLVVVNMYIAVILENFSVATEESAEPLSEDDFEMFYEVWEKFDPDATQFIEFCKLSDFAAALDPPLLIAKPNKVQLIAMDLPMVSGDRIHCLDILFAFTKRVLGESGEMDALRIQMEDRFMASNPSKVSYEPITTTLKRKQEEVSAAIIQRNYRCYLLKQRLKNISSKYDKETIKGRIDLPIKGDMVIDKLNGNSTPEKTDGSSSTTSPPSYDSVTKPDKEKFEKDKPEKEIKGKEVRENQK

Binder	IC50 Nav1.8 (µM); inhibition of channel current, patch clamp (rNaV1.8 channels) [µM]	IC50 Nav1.3 (µM); inhibition of channel current, patch clamp (rNaV1.3 channels) [µM]
B1	0.17	0.13
B2		0.23
B3		1.2
B4	2.5	1.75
